Laboratory results taken from patent US20120269734.

How the values were obtained:
[1] = system: kemptide (substrate of PKA), conjugated to the bioluminescent protein Luc8 as in the method of FIG. 21b
[2] = biological target: T1, Luc8 fusion protein (Luc8-PLGVR-6xHis)
T1 chain: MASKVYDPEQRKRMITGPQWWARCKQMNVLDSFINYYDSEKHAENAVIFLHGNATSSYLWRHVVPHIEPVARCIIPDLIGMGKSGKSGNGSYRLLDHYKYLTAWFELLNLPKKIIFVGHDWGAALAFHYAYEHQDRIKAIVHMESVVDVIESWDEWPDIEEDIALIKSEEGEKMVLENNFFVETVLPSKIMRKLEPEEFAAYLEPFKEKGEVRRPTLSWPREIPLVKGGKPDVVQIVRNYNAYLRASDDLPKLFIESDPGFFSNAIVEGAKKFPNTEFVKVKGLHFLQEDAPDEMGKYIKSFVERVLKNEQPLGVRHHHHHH

Molecule	BRET ratio after the PKA phosphorylation (method of FIG. 21b) [1]	BRET ratio before the PKA phosphorylation (method of FIG. 21b) [1]	BRET ratio after 24 hours at 22° C., MMP-2 at 20 ng/mL (~300 pM) [2]	BRET ratio at the start, MMP-2 at 20 ng/mL (~300 pM) [2]	BRET ratio before the MMP-2 cleavage (t=0); fusion protein 16 µM, MMP-2 10 µg/mL, 22° C. [2]	BRET ratio within 30 minutes of incubation with MMP-2 (10 µg/mL) [2]	BRET ratio within 2 hours of incubation with MMP-2 (10 µg/mL) [2]	NuPAGE assay [2]	decrease of the BRET ratio after 24 hours at 22° C. with MMP-2 at 20 ng/mL (~300 pM) [2]	gel electrophoresis (4-12% Bis-Tris denaturing gel, Coomassie) [2]
Protein Kinase A (PKA)	The BRET ratio was increased from 0.15 to 0.47 after the PKA phosphorylation of the substrate kemptide	The BRET ratio was increased from 0.15 to 0.47 after the PKA phosphorylation of the substrate kemptide								
active human recombinant MMP-2 (CalBiochem) (protein) YNFFPRKPKWDKNQITYRIIGYTPDLDPETVDDAFARAFQVWSDVTPLRFSRIHDGEADIMINFGRWEHGDGYPFDGKDGLLAHAFAPGTGVGGDSHFDDDELWTLGEGQVVRVKYGNADGEYCKFPFLFNGKEYNSCTDTGRSDGFLWCSTTYNFEKDGKYGFCPHEALFTMGGNAEGQPCKFPFRFQGTSYDSCTTEGRTDGYRWCGTTEDYDRDKKYGFCPETAMSTVGGNSEGAPCVFPFTFLGNKYESCTSAGRSDGKMWCATTANYDDDRKWGFCPDQGYSLFLVAAHEFGHAMGLEHSQDPGALMAPIYTYTKNFRLSQDDIKGIQELYGASPDIDLGTGPTPTLGPVTPEICKQDIVFDGIAQIRGEIFFFKDRFIWRTVTPRDKPMGPLLVATFWPELPEKIDAVYEAPQEEKAVFFAGNEYWIYSASTLERGYPKPLTSLGLPPDVQRVDAAFNWSKNKKTYIFAGDKFWRYNEVKKKMDPGFPKLIADAWNAIPDNLDAVVDLQGGGHSYFFKGAYYLKLENQSLKSVKFGSIKSDWLGC			the BRET ratio decreased by ~20% from 1.6 to 1.3 for a concentration of MMP-2 of 20 ng/mL (~300 pM)	the BRET ratio decreased by ~20% from 1.6 to 1.3 for a concentration of MMP-2 of 20 ng/mL (~300 pM)	the BRET ratio was 1.64	Within 30 minutes, the BRET ratio dropped to 0.62	the reaction was nearly complete within 2 hours with a BRET ratio of 0.21	NuPAGE assay detected a protein product with a smaller size, confirming the hydrolysis by MMP-2	the BRET ratio decreased by ~20% from 1.6 to 1.3 for a concentration of MMP-2 of 20 ng/mL (~300 pM)	Gel electrophoresis analysis confirmed the cleavage of the fusion protein by MMP-2
